From PMC5686127, “Accessibility of the histone H3 tail in the nucleosome for binding of paired readers” (Nature Communications, 2017)
Blank lines part the entries; values can stand above or below the substance they belong to.

Experiments:
[1] = test system: CHD4 PHD1/2; assay: FRET (nucleosome unwrapping); details: 1.4 uM LexA present, FP: 15 mM Tris pH 7.5, 75 mM NaCl, 0.00625% Tween20, 3 mM DTT, 5 nM NCP, FRET: 15 mM Tris pH 7.5, 1 mM EDTA, 0.00625% Tween20, 25 nM NCP, NMR: …
[2] = test system: LexA; assay: FRET (nucleosome unwrapping); details: FP: 15 mM Tris pH 7.5, 75 mM NaCl, 0.00625% Tween20, 3 mM DTT, 5 nM NCP, FRET: 15 mM Tris pH 7.5, 1 mM EDTA, 0.00625% Tween20, 25 nM NCP, NMR: …
[3] = biological target: nucleosome (NCP) with fluorescein-labelled DNA, for fluorescence polarization (human); assay: fluorescence polarisation; increasing amounts of CHD4 PHD1/2, PHD1 or PHD2 added to 5 nM nucleosomes with fluorescein-labelled DNA; 15 mM Tris pH 7.5, 75 mM NaCl, 0.00625% Tween20, 3 mM DTT; apparent
[4] = test system: CHD4 PHD1/2; assay: fluorescence polarization; details: 75 mM NaCl, apparent Kd, FP: 15 mM Tris pH 7.5, 75 mM NaCl, 0.00625% Tween20, 3 mM DTT, 5 nM NCP, FRET: 15 mM Tris pH 7.5, 1 mM EDTA, 0.00625% Tween20, 25 nM NCP, NMR: …

Sequence of CHD4 PHD1/2 (aa 361–503) (Q14839 361-503): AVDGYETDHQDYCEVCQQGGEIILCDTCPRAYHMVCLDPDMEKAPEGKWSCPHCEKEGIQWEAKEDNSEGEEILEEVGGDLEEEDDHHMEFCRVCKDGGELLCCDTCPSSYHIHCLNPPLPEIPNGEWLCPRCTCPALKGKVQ

Substance: Cy3-Cy5-NCP, 601 L with LexA site
K half [1]: 32 µM
K half [2]: 1400 nM

Kd [3]: 630 nM
Substance: CHD4 PHD1/2 (aa 361–503) (from UniProt Q14839 361-503) (domain or fragment)

Substance: Fluorescein-NCP, 601 L with LexA site
Kd [4]: 630 nM
